Source: PMC8693978

Legend:
[1] = target: EGFP-ARHGAP4 SH3 deletion mutant (human); assay: co-IP
[2] = target: EGFP-ARHGAP4 Rho-GAP deletion mutant (human); assay: co-IP

Binder | percent of the co-precipitation by full-length ARHGAP4 [1] [%] | percent of the co-precipitation by full-length ARHGAP4 [2] [%]
SEPT2 (natural protein) MSKQQPTQFINPETPGYVGFANLPNQVHRKSVKKGFEFTLMVVGESGLGKSTLINSLFLTDLYPERVIPGAAEKIERTVQIEASTVEIEERGVKLRLTVVDTPGYGDAINCRDCFKTIISYIDEQFERYLHDESGLNRRHIIDNRVHCCFYFISPFGHGLKPLDVAFMKAIHNKVNIVPVIAKADTLTLKERERLKKRILDEIEEHNIKIYHLPDAESDEDEDFKEQTRLLKASIPFSVVGSNQLIEAKGKKVRGRLYPWGVVEVENPEHNDFLKLRTMLITHMQDLQEVTQDLHYENFRSERLKRGGRKVENEDMNKDQILLEKEAELRRMQEMIARMQAQMQMQMQGGDGDGGALGHHV | 65 | 55
SEPT9 (natural protein) MKKSYSGGTRTSSGRLRRLGDSSGPALKRSFEVEEVETPNSTPPRRVQTPLLRATVASSTQKFQDLGVKNSEPSARHVDSLSQRSPKASLRRVELSGPKAAEPVSRRTELSIDISSKQVENAGAIGPSRFGLKRAEVLGHKTPEPAPRRTEITIVKPQESAHRRMEPPASKVPEVPTAPATDAAPKRVEIQMPKPAEAPTAPSPAQTLENSEPAPVSQLQSRLEPKPQPPVAEATPRSQEATEAAPSCVGDMADTPRDAGLKQAPASRNEKAPVDFGYVGIDSILEQMRRKAMKQGFEFNIMVVGQSGLGKSTLINTLFKSKISRKSVQPTSEERIPKTIEIKSITHDIEEKGVRMKLTVIDTPGFGDHINNENCWQPIMKFINDQYEKYLQEEVNINRKKRIPDTRVHCCLYFIPATGHSLRPLDIEFMKRLSKVVNIVPVIAKADTLTLEERVHFKQRITADLLSNGIDVYPQKEFDEDSEDRLVNEKFREMIPFAVVGSDHEYQVNGKRILGRKTKWGTIEVENTTHCEFAYLRDLLIRTHMQNIKDITSSIHFEAYRVKRLNEGSSAMANGMEEKEPEAPEM | 65 | 55
